Experimental findings from patent US20240287154A1, “MC3R AGONIST PEPTIDES” (The Regents of the University of Michigan, priority 2021, published 2024) are described below.

First the molecules themselves.
B1: CTX-1182 (peptide)
peptide: Ac-[Nle][dNle]HFR[dW]DRFG-OH
SMILES: CCCC[C@H](NC(C)=O)C(=O)N[C@H](CCCC)C(=O)N[C@@H](Cc1c[nH]cn1)C(=O)N[C@@H](Cc1ccccc1)C(=O)N[C@@H](CCCNC(=N)N)C(=O)N[C@H](Cc1c[nH]c2ccccc12)C(=O)N[C@@H](CC(=O)O)C(=O)N[C@@H](CCCNC(=N)N)C(=O)N[C@@H](Cc1ccccc1)C(=O)NCC(=O)O
B2: CTX-1183 (peptide)
peptide: Ac-[Nle][dNMeA]HFR[dW]DRFG-OH
SMILES: CCCC[C@H](NC(C)=O)C(=O)N(C)[C@H](C)C(=O)N[C@@H](Cc1c[nH]cn1)C(=O)N[C@@H](Cc1ccccc1)C(=O)N[C@@H](CCCNC(=N)N)C(=O)N[C@H](Cc1c[nH]c2ccccc12)C(=O)N[C@@H](CC(=O)O)C(=O)N[C@@H](CCCNC(=N)N)C(=O)N[C@@H](Cc1ccccc1)C(=O)NCC(=O)O
B3: CTX-1190 (peptide)
peptide: Ac-[Nle][dA][NMeA]FR[dW]DRFG-OH
SMILES: CCCC[C@H](NC(C)=O)C(=O)N[C@H](C)C(=O)N(C)[C@@H](C)C(=O)N[C@@H](Cc1ccccc1)C(=O)N[C@@H](CCCNC(=N)N)C(=O)N[C@H](Cc1c[nH]c2ccccc12)C(=O)N[C@@H](CC(=O)O)C(=O)N[C@@H](CCCNC(=N)N)C(=O)N[C@@H](Cc1ccccc1)C(=O)NCC(=O)O
B4: CTX-1184 (peptide)
peptide: Ac-[Nle][dP]HFR[dW]DRFG-OH
SMILES: CCCC[C@H](NC(C)=O)C(=O)N1CCC[C@@H]1C(=O)N[C@@H](Cc1c[nH]cn1)C(=O)N[C@@H](Cc1ccccc1)C(=O)N[C@@H](CCCNC(=N)N)C(=O)N[C@H](Cc1c[nH]c2ccccc12)C(=O)N[C@@H](CC(=O)O)C(=O)N[C@@H](CCCNC(=N)N)C(=O)N[C@@H](Cc1ccccc1)C(=O)NCC(=O)O
B5: CTX-1186 (peptide)
peptide: Ac-[Nle][dA][NMeH]FR[dW]DRFG-OH
SMILES: CCCC[C@H](NC(C)=O)C(=O)N[C@H](C)C(=O)N(C)[C@@H](Cc1c[nH]cn1)C(=O)N[C@@H](Cc1ccccc1)C(=O)N[C@@H](CCCNC(=N)N)C(=O)N[C@H](Cc1c[nH]c2ccccc12)C(=O)N[C@@H](CC(=O)O)C(=O)N[C@@H](CCCNC(=N)N)C(=O)N[C@@H](Cc1ccccc1)C(=O)NCC(=O)O
B6: CTX-1189 (peptide)
peptide: Ac-[Nle][dA][NMeK]FR[dW]DRFG-OH
SMILES: CCCC[C@H](NC(C)=O)C(=O)N[C@H](C)C(=O)N(C)[C@@H](CCCCN)C(=O)N[C@@H](Cc1ccccc1)C(=O)N[C@@H](CCCNC(=N)N)C(=O)N[C@H](Cc1c[nH]c2ccccc12)C(=O)N[C@@H](CC(=O)O)C(=O)N[C@@H](CCCNC(=N)N)C(=O)N[C@@H](Cc1ccccc1)C(=O)NCC(=O)O
B7: CTX-1185 (peptide)
peptide: Ac-[Nle]GHFR[dW]DRFG-OH
SMILES: CCCC[C@H](NC(C)=O)C(=O)NCC(=O)N[C@@H](Cc1c[nH]cn1)C(=O)N[C@@H](Cc1ccccc1)C(=O)N[C@@H](CCCNC(=N)N)C(=O)N[C@H](Cc1c[nH]c2ccccc12)C(=O)N[C@@H](CC(=O)O)C(=O)N[C@@H](CCCNC(=N)N)C(=O)N[C@@H](Cc1ccccc1)C(=O)NCC(=O)O

Non-standard residues stand in square brackets, D forms with d. NMeH = CN[C@@H](Cc1c[nH]cn1)C(=O)O; NMeK = CN[C@@H](CCCCN)C(=O)O; dNle = CCCC[C@@H](N)C(=O)O; NMeA = CN[C@@H](C)C(=O)O; Nle = CCCC[C@H](N)C(=O)O; dNMeA = CN[C@H](C)C(=O)O

The target of this test is human MC3R (human, UniProt P41968 1-323). Put plainly: cell-based or functional assay.
Sequence of human MC3R (P41968 whole entry): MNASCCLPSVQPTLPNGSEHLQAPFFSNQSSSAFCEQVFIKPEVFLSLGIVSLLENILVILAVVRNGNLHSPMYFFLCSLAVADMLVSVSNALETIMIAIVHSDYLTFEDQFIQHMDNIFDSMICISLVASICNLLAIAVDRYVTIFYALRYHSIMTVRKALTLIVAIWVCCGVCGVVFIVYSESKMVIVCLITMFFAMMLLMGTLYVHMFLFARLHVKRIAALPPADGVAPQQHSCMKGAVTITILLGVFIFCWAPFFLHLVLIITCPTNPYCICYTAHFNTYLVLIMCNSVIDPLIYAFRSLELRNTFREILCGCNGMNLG
B1: the “MC3R cAMP (EC50)” value worked out at 14.6 nM and the “MC3R selectivity (relative to MC4R)” value stood at 1410.

For the molecule B2, the “MC3R cAMP (EC50)” value was 71.6 nM and the “MC3R selectivity (relative to MC4R)” value came out at 515.

With B3, the “MC3R cAMP (EC50)” value came out at 3920 nM.

Consider B4, for which the “MC3R cAMP (EC50)” value turned out to be 607 nM and the “MC3R selectivity (relative to MC4R)” value came to 28.

Consider B5, for which the “MC3R cAMP (EC50)” value is 200 nM and the “MC3R selectivity (relative to MC4R)” value was found to be 1880.

Turning to B6, the “MC3R cAMP (EC50)” value worked out at 3540 nM and the “MC3R selectivity (relative to MC4R)” value was 1.

Consider B7, for which the “MC3R cAMP (EC50)” value was 2.7 nM and the “MC3R selectivity (relative to MC4R)” value amounted to 2310.
